Data from article PMC5482063.

How the values were obtained:
[1] = biological target: mCherry-optoPlexin (chimera of Cry2 at the amino terminus, mCherry, and the intracellular domain of Plexin-B1 at the C terminus) (not stated | mouse) (UniProt Q96524); experiment: membrane co-recruitment assay (TIRF microscopy); living COS-7 cells co-expressing mVenus-RhoGEF, the mCherry-tagged Cry2 construct and CIB-CAAX; whole-cell blue light; increase of the RhoGEF's fluorescence relative to that of optoPlexin (relative co-recruitment); only cells with at least 30% increase in optoPlexin signal; also with Erlotinib
[2] = biological target: farnesylated Cryptochrome interacting basic helix-loop-helix 1 (CIB1-CAAX) (UniProt Q8GY61); experiment: light-induced membrane recruitment assay (TIRF microscopy); living COS-7 or MC3T3-E1 cells co-expressing the Cry2 construct and CIB-CAAX; illumination limited to a 5 μm-diameter circle (440 nm); 37 °C
[3] = biological target: farnesylated Cryptochrome interacting basic helix-loop-helix 1 (CIB1-CAAX) (UniProt Q8GY61); experiment: light-induced membrane recruitment assay (TIRF microscopy); living COS-7 cells co-expressing the Cry2 construct and CIB1-CAAX at the plasma membrane; whole-cell blue light (440 nm, 50 ms pulses at 10 s intervals); fluorescence after ten pulses normalised to that before illumination; 37 °C

Chain of UniProt Q8GY61 (Q8GY61 whole entry): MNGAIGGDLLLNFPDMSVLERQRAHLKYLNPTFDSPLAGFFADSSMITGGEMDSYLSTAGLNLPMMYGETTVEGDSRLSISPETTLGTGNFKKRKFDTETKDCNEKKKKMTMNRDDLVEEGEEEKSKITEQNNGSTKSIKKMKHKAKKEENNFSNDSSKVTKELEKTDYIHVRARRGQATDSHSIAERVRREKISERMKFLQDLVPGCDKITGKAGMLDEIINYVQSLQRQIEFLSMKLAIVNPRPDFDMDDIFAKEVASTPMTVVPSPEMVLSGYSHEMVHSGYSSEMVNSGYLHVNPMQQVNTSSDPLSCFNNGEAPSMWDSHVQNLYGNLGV

Substance | relative co-recruitment (increase in fluorescence relative to that of optoPlexin) [1] [%] | fold increase of TIRF fluorescence intensity (membrane recruitment) [2] [fold] | fold increase of TIRF fluorescence intensity (membrane recruitment) [3] [fold]
mVenus-Leukemia-associated RhoGEF (mVenus-LARG) (from UniProt Q9NZN5 1-1544) (natural protein) | 60 |  | 
mVenus-PDZ-RhoGEF (mVenus-PRG) (from UniProt O15085 1-1522) (natural protein) | 26 |  | 
mCherry-optoPlexin (chimera of Cry2 at the amino terminus, mCherry, and the intracellular domain of Plexin-B1 at the C terminus) (from UniProt Q96524 1-612) |  | 4 | 2
